Experimental data from patent US20040106134A1 (Regeneron, published 2004).

Tests used:
mouse Nodal = molecular target: T1, mouse Nodal (mouse, UniProt P43021 245-354, limits assumed, 35S-labelled); experiment: co-immunoprecipitation with anti-myc 9E10 beads, 35S-labelled Nodal
T1 construct: Provided as 35S-labelled protein expressed in X. laevis oocytes; also called mBMP-16; 35S-mouse Nodal
T1 sequence (looked up): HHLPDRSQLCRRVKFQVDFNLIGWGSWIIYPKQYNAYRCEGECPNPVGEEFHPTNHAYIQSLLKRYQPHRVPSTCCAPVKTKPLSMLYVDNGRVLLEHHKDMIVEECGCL
Method: (§1) Human DCR5-myc3 (1 ml of COS7 cell-derived serum-free conditioned media described supra) was co-incubated with human BMP-2 (1 μg/ml), or human BMP-4 (0.5 μg/1 ml) (R&D Systems), or human BMP-5 ([…]) (R&D Systems), or mouse Nodal (also known as mBMP-16; provided as ³⁵S-mouse Nodal expressed in X. laevis oocytes), or human BMP-11 (also known as human GDF-11; provided as ³⁵S-human BMP-11 expressed in X. laevis oocytes), in the absence or in the presence of human noggin protein hNGAB2 (described in published PCT application publication no. WO 99/03996, published Jan. 28, 1999, and incorporated in its entirety herein by reference), 2 to 5 μg/ml. The formation of a stable complex between human DCR5-myc3 and the different BMP family members was determined by immunoprecipitating human DCR5-myc3 and associated proteins using the anti-myc monoclonal antibody (9E10; 1 μg/ml) bound to Protein A Ultralink (Pierce). The binding reaction was carried out in the serum-free conditioned media containing 20 mM Tris pH 7.6, 150 mM NaCl, 0.1% Tween 20 (TBST), and 1 mg/ml bovine serum albumin (BSA). Binding was allowed to proceed for 1 hour at 25° C. in a reaction volume of 1.1 ml, with continuous mixing to keep the Protein A-Ultralink (Pierce) in suspension. […]

human BMP-5 = molecular target: T2, human BMP-5 (human, UniProt P22003 317-454, limits assumed); experiment: co-immunoprecipitation with anti-myc 9E10 beads, western blot
T2 construct: Bought from R&D Systems
T2 sequence (looked up): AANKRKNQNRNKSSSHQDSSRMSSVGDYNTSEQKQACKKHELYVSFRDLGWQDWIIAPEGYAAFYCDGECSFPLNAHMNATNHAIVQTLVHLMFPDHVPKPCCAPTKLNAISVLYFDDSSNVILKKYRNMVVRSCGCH
Method: as §1

human BMP-11 = molecular target: T3, human BMP-11 (human, UniProt O95390 299-407, limits assumed, 35S-labelled); experiment: co-immunoprecipitation with anti-myc 9E10 beads, 35S-labelled BMP-11
T3 construct: Provided as 35S-labelled protein expressed in X. laevis oocytes; also called human GDF-11; GDF-11
T3 sequence (looked up): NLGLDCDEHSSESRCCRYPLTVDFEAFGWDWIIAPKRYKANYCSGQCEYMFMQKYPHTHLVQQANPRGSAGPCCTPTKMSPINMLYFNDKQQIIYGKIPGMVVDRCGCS
Method: as §1

B1: human DCR5-myc3 (other)
chain: RKNRPAGAIPSPYKDGSSNNSERWQHQIKEVLASSQEALVVTERKYLKSDWCKTQPLRQTVSEEGCRSRTILNRFCYGQCNSFYIPRHVKKEEESFQSCAFCKPQRVTSVLVELECPGLDPPFRLKKIQKVKQCRCMSVNLSDSDKQTGEQKLISEEDLGGEQKLISEEDLGGEQKLISEEDLGP
notes: Used as serum-free conditioned medium of transiently transfected COS7 cells; also called Human DCR5-myc3 protein; hDCR-5
binding result (mouse Nodal): no binding
binding result (human BMP-5): no binding (tested: 1 g/ml (so in the source))
binding result (human BMP-11): no binding
